Source: patent CN114891104A (YOURUI SAISI WUHAN BIOTECHNOLOGY CO LTD, dated 2022)

Biological target: T1, 重组人proAMH蛋白 (recombinant human proAMH protein) (human, UniProt P03971 25-560)
T1 construct: Expressed in Expi293 cells and purified on Ni-IMAC; nothing is said about the recombinant protein itself; also called His-tag重组人proAMH蛋白; 人proAMH标准品蛋白; not shown: His-tag; neither its length nor its terminus is stated
T1 sequence (looked up): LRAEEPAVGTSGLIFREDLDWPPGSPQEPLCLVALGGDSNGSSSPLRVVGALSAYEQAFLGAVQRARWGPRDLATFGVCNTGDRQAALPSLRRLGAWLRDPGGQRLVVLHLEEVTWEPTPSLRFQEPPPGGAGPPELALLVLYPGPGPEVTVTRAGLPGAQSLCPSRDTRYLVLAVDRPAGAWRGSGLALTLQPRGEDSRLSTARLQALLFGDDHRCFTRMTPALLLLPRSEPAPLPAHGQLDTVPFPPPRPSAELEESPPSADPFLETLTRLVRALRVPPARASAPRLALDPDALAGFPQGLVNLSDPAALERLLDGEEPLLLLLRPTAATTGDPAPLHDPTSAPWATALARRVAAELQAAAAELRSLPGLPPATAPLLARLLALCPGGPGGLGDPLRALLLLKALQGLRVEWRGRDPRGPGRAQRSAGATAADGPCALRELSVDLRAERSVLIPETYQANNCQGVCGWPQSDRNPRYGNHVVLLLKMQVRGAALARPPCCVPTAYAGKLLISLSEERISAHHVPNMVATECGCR
Test: SPR, Biacore 3000; antibody immobilised on CM5 chip, proAMH at 100-3 nM as analyte

B1: 单克隆抗体A (抗人proAMH蛋白兔单克隆抗体A) (antibody, V domains shown)
VH: QSVKESEGGLFKPTDTLTLTCTVSAFSISTYGVSWVRQAPGNGLEYIGWIAATGKVFYASWAKSRSTITRNTYENTVTLKMTSLTVADTATYFCAHVIWATQTFDFWGPGTLVTVSS
VL: DVVMTQTPASVSDPVGGTVTIKCQASQTITNFLSWFQQKPGQPPKLLIYNTMTLASGVPSRFKGSGSGTEYTLTISGVECADAATYYCQEGDNWDEVDAVFGGGTEVVVKG
notes: Recombinant rabbit monoclonal antibody made in 293F cells; kappa light chain, heavy constant region called IgG1 type; Copies '2' follows from the IgG format; also called monoclonal antibody A
  Kd: 6.02 nM
  koff: 0.000117 s⁻¹
  kon: 19500 M⁻¹ s⁻¹
